# From US10428140B2, “Anti-EphA4 antibody” (EISAI R&D MANAGEMENT CO., LTD., priority 2015, dated 2019)
# Residue numbers refer to the chain shown, from its start.
# T1: human EphA6 (Homo sapiens, UniProt Q9UF33)
# T1 construct: a protein of the extracellular region of each human Eph receptor fused with the SEAP protein and the His tag; made in house; host or cells: Expi293F cells (culture supernatant)
# T1 sequence (Q9UF33 23-550 limits assumed): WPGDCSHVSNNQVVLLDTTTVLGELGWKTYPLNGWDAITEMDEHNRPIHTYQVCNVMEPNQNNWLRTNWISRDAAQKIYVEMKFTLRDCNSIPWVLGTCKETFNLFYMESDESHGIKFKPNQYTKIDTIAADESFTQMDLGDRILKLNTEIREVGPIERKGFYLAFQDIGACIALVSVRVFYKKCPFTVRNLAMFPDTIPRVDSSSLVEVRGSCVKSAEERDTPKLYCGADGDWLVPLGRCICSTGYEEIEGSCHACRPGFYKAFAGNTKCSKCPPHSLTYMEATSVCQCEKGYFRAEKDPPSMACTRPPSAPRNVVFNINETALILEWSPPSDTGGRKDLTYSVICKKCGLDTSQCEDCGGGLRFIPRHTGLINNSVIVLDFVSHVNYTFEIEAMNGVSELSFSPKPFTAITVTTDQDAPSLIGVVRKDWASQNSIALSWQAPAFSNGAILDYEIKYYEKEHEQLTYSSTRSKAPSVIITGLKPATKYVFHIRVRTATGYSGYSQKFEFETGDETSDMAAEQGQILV
# T2: human EphA10 (Homo sapiens, UniProt Q5JZY3)
# T2 construct: a protein of the extracellular region of each human Eph receptor fused with the SEAP protein and the His tag; made in house; host or cells: Expi293F cells (culture supernatant)
# T2 sequence (Q5JZY3 34-565 limits assumed): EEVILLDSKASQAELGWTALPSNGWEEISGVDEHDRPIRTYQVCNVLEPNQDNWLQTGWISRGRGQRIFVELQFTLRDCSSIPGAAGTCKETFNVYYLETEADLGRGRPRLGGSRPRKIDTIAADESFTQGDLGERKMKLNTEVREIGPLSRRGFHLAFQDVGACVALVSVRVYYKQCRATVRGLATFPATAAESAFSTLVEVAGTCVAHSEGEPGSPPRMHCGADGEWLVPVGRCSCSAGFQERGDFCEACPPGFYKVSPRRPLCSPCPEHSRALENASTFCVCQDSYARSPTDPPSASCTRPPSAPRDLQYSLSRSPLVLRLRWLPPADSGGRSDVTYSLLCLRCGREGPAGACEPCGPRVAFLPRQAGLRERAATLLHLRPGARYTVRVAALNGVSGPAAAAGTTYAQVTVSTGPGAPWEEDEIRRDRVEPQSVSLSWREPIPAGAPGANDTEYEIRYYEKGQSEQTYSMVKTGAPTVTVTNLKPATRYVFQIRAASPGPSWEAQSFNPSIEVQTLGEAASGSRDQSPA
# T3: human EphA7 (Homo sapiens, UniProt Q15375)
# T3 construct: a protein of the extracellular region of each human Eph receptor fused with the SEAP protein and the His tag; made in house; host or cells: Expi293F cells (culture supernatant)
# T3 sequence (Q15375 28-555 limits assumed): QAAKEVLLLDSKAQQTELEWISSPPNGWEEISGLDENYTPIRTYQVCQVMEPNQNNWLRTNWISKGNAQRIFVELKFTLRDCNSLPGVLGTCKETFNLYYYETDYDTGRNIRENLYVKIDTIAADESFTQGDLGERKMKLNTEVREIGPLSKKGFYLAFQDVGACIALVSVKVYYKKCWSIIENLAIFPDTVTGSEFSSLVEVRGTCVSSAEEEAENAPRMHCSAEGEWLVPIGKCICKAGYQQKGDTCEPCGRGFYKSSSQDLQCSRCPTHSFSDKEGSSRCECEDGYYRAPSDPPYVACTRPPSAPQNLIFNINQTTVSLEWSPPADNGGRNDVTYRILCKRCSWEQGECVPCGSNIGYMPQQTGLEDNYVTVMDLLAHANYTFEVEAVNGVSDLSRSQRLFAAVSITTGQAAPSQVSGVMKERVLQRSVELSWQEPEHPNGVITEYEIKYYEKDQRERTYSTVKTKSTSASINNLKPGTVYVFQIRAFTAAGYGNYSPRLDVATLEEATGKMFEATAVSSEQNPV
# B1: 69 (antibody, V domains shown)
# VH: QIQLVQSGSELKKPGASVKVSCKASGYTFTDYSMHWVRQAPGQGLKWMGWINTETGEPTYADDFKGRFVFSLDTSVSTAYLQISSLKAEDTAVYYCARIPLYYYGSRYWYFDVWGQGTTVTVSS
# VL: DIQMTQSPSSLSASVGDRVTITCRASENIYRNLAWYQQKPGKAPKLLVYAATNLADGVPSRFSGSGSGTDYTLTISSLQPEDFATYYCQHFWGTPWTFGQGTKVEIK
# modifications: synthetic humanized antibody heavy chain variable region sequence; synthetic humanized antibody light chain variable region sequence
# B2: 86 (antibody, V domains shown)
# VL: B1 VL with V48L, P80S
# VH: B1 VH
# modifications: constant regions without entry; synthetic humanized antibody light chain variable region sequence; synthetic humanized antibody heavy chain variable region sequence
# B3: 81 (antibody, V domains shown)
# VL: B1 VL with V48L, P80S
# VH: B1 VH with I2V, K46E, D62Q, D63G, K65T
# modifications: constant regions without entry; synthetic humanized antibody light chain variable region sequence; synthetic humanized antibody heavy chain variable region sequence
# B4: 88 (antibody, V domains shown)
# VL: B1 VL with K45Q, V48L
# VH: B1 VH with I2V, D62Q, D63G, K65T
# modifications: constant regions without entry; synthetic humanized antibody light chain variable region sequence; synthetic humanized antibody heavy chain variable region sequence
# B5: 89 (antibody, V domains shown)
# VL: B1 VL with K45Q, V48L
# VH: B1 VH with D62Q, D63G, K65T
# modifications: constant regions without entry; synthetic humanized antibody light chain variable region sequence; synthetic humanized antibody heavy chain variable region sequence
# B6: 84 (antibody, V domains shown)
# VL: B1 VL with V48L, P80S
# VH: B1 VH with I2V, K46E
# modifications: constant regions without entry; synthetic humanized antibody light chain variable region sequence; synthetic humanized antibody heavy chain variable region sequence
# B7: 83 (antibody, V domains shown)
# VL: B1 VL with V48L, P80S
# VH: B1 VH with D62Q, D63G, K65T
# modifications: constant regions without entry; synthetic humanized antibody light chain variable region sequence; synthetic humanized antibody heavy chain variable region sequence
# B8: 85 (antibody, V domains shown)
# VL: B1 VL with V48L, P80S
# VH: B1 VH with I2V
# modifications: constant regions without entry; synthetic humanized antibody light chain variable region sequence; synthetic humanized antibody heavy chain variable region sequence
# B9: 87 (antibody, V domains shown)
# VL: B1 VL with K45Q, V48L
# VH: B1 VH with I2V, K46E, D62Q, D63G, K65T
# modifications: constant regions without entry; synthetic humanized antibody light chain variable region sequence; synthetic humanized antibody heavy chain variable region sequence
# B10: 82 (antibody, V domains shown)
# VL: B1 VL with V48L, P80S
# VH: B1 VH with I2V, D62Q, D63G, K65T
# modifications: constant regions without entry; synthetic humanized antibody light chain variable region sequence; synthetic humanized antibody heavy chain variable region sequence
# Target: T4, human EphA2 (Homo sapiens, UniProt P29317)
# T4 construct: a protein of the extracellular region of each human Eph receptor fused with the SEAP protein and the His tag; made in house; host or cells: Expi293F cells (culture supernatant)
# T4 sequence (P29317 24-537 limits assumed): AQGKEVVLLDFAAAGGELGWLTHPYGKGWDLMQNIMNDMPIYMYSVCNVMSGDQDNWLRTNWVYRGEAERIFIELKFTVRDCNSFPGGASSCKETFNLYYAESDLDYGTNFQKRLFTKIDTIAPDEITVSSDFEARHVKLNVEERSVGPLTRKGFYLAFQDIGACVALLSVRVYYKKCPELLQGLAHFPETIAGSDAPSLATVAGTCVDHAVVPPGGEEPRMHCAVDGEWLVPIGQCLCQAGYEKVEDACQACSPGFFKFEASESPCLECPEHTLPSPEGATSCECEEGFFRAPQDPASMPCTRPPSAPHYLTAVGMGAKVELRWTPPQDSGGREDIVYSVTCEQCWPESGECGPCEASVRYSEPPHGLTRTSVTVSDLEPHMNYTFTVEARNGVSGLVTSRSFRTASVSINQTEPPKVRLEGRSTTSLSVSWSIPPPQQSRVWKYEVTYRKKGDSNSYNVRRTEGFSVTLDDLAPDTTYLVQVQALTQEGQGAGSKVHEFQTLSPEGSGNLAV
# Experiment: Selectivity ELISA of humanized antibodies for human Eph receptor
# Assay type: binding
# Settings: coated protein 1 nM
# How it was run: (§1)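 Human Eph ECD-SEAP-His fusions, harvested after 5 days of Expi293F expression, are captured on anti-His-coated wells (1 nM final). Bound humanized antibody is detected with HRP anti-IgG and TMB at 450 nm.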
row,"hEphA2-SEAP-: absorbance at 450 nm, percentage with respect to hEphA4-SEAP-His as 100%",Molecule
1,5.5%,B1
2,5.7%,B2
3,4.8%,B3
4,5.8%,B4
5,5.6%,B5
6,4.9%,B6
7,5.8%,B7
8,5.1%,B8
9,5.4%,B9
10,5.4%,B10

# Target: T1, human EphA6
# Experiment: as above
# Assay type: binding
# Settings: coated protein 1 nM
# How it was run: as §1
row,"hEphA6-SEAP-: absorbance at 450 nm, percentage with respect to hEphA4-SEAP-His as 100%",Molecule
1,9.5%,B1
2,8.6%,B2
3,8.8%,B3
4,7.5%,B4
5,8.4%,B5
6,6.0%,B6
7,7.5%,B7
8,6.2%,B8
9,6.4%,B9
10,8.7%,B10

# Target: T2, human EphA10
# Experiment: as above
# Assay type: binding
# Settings: coated protein 1 nM
# How it was run: as §1
row,"hEphA10-SEAP-: absorbance at 450 nm, percentage with respect to hEphA4-SEAP-His as 100%",Molecule
1,5.4%,B1
2,5.6%,B2
3,4.8%,B3
4,5.8%,B4
5,5.7%,B5
6,5.1%,B6
7,5.6%,B7
8,5.0%,B8
9,5.2%,B9
10,5.4%,B10

# Target: T3, human EphA7
# Experiment: as above
# Assay type: binding
# Settings: coated protein 1 nM
# How it was run: as §1
row,"hEphA7-SEAP-: absorbance at 450 nm, percentage with respect to hEphA4-SEAP-His as 100%",Molecule
1,5.3%,B1
2,5.6%,B2
3,5.2%,B3
4,6.0%,B4
5,5.4%,B5
6,4.8%,B6
7,5.5%,B7
8,4.8%,B8
9,5.3%,B9
10,5.4%,B10
